In CN113929777A (DONGGUAN PENGZHI BIOTECHNOLOGY CO LTD, dated 2022):

Target: T1, 重组肌红蛋白(自产) (UniProt P02144 2-154)
T1 construct: The ELISA names it 重组肌红蛋白 and the BLI assay names it MYO蛋白; both are treated as one molecule; also called MYO蛋白; Mb
T1 sequence (looked up): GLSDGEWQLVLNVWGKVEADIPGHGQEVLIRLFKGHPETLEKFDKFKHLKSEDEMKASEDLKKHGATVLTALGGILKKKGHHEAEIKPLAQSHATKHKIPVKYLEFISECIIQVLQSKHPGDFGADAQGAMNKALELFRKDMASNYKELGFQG
Experiment: BLI, antibody captured on AMC sensors, MYO protein in serial dilution

Kd: 4.56 nM | koff: 0.000118 s⁻¹ | kon: 25900 M⁻¹ s⁻¹
B1: 实施例1的肌红蛋白单克隆抗体(WT) (antibody, mouse IgG1, kappa, V domains shown)
VH: QIQLVQSGPELKKPGETVKISCKASGYTYTEFSVHWVKQAPGKGLKWMGWINSETSEPTYGDDFKGRFAFSLETSASAAYLQINNLKNEDSATYFCARRAYYLFGPFTYWGQGTLVTVSA
VL: DIVLTQSPASLAVSLGQRATISCRASKSVDFNGDSYMNWHQQKPGQPPKLLIYAASQRESGIPARFSGSGSGTDFTLNIHPVEEEDAATYYCQHSNEEPYTFGGGTKLEIKR
notes: Recombinant antibody cloned from hybridoma 5G9 and expressed in CHO cells; Detected with goat anti-mouse IgG-HRP; also called WT抗体; 5G9 recombinant antibody
